Laboratory results reported in the RNAGym collection of RNA variant scans (doi:10.1073/pnas.2313332121).

B1: TPR t1 (parent)
chain: GACCAAUCUGCCCUCAGAGCUCGAGAACAUCUUCGGAUGCAGAGGAGGCAGGCUUCGGUGGCGCGAUAGCGCCAACGUCCUCAACCUCCAAUGCAUCCCACCACAUGAUGAUGCCUGAAGAGCCUUGGUUUUUUG

Variants of: B1
Test: polymerase ribozyme fitness, log enrichment relative to wild type (log ratio); higher = more active; in vitro selection for triplet polymerase activity
Outline: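 Each subunit of a heterodimeric triplet polymerase ribozyme was mutagenized into a library by PCR, transcribed, and subjected to one round of in vitro selection, run in triplicate. Libraries were annealed with a biotinylated primer, the partner subunit and triplets, incubated frozen at −7 °C, and extended constructs were gel-excised, captured on streptavidin beads and recovered by RT-PCR. Input and output libraries were sequenced on Illumina, keeping genotypes with ≥10 input reads and ≥1 read per output. Fitness is log base 2 of genotype enrichment divided by wild-type enrichment, from inverse-variance-weighted replicate averages.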

Row | Variant | polymerase ribozyme fitness (log ratio)
1 | C13A G52U U54C C70U C124U | -1.03
2 | C13G C82A A84G C123A | -0.276
3 | C13G C82G C102A | -4.14
4 | C13G A27U G47U G63A U78A | -6.63
5 | C13G C56U C85A | -3.69
6 | C13G G39C G113C | -3.84
7 | C13G A119U C123U | 1.58
8 | C13A U21C C62G | -2.82
9 | C13G A111G C115U | -4.46
10 | C13G G39U G63U C115U | -5.78
11 | C13G A18U A27G C53U C89A C104U | -5.29
12 | C13A G60U C72U A91U G120A | -2.35
13 | C13A U38G G58U | -2.03
14 | C13A G60A U131A | -2.5
15 | C13G A29G G42A G117U | -6.21
16 | C13A U55C G58A G63A | -3.2
17 | C13G A50U U87C | -3.31
18 | C13G G17U U38A C49G G61U | -4.63
19 | C13A G60U C86U | -2.73
20 | C13G A90G | -1.86
21 | C13G C82A | -2.47

Row | Variant | polymerase ribozyme fitness (log ratio)
22 | C13G C62U G120U | -0.935
23 | C13G G36U C101U U112C | -1.75
24 | C13G C115A | -1.77
25 | C13G C40A | -0.524
26 | C13G A41U | -3.04
27 | C13G C15U C40U G117U G120A | -2.61
28 | C13G C34A G39A | -5
29 | C13G C70U U112G | -2.26
30 | C13G A46C U78C C86A | -4.39
31 | C13G A50G U106A C124A G127U | 1.19
32 | C13G C49A C72U C88A | -2.56
33 | C13G A16G U21A A29C A43U G69U C82G C114U | -4.09
34 | C13G A43U G58A | -4.45
35 | C13G G45C C53U G63U C88A | -3.62
36 | C13G A95G U112C C124U | 1.05
37 | C13G C72G C102G G113A G128A | -5.75
38 | C13G C53A C82A | -2.24
39 | C13G A74U | -2.54
40 | C13G C56U U112C | 0.0684
41 | C13G C22U | -3.6
42 | C13G C123G | 1.77

Row | Variant | polymerase ribozyme fitness (log ratio)
43 | C13A U21G G63A | -4.73
44 | C13A U32A C53G | -6.04
45 | C13G A26G C70U C99U A119U | -4.5
46 | C13A G71U | -1.35
47 | C13G A37U G42C C53U G77A A121G U130A | -1.06
48 | C13G A29C U54A A105C U106A | -3.03
49 | C13G A121U | 0.0945
50 | C13A G120C | -0.417
51 | C13G A37G G117C | -4.68
52 | C13G C89G | -3.05
53 | C13G A18U A27G C53U C70U C89A C104U | -5.81
54 | C13G C15A A29G C64A C82A C104G U109G U131A | -5.2
55 | C13G A24G G48A G63C C86G U109A | -6.58
56 | C13G A50C C53G U96G | -3.94
57 | C13G C89A A90C U130C | -3.77
58 | C13A G42U C72G | -3.63
59 | C13G C62A C94U | -3.01
60 | C13G C124A G128U | -0.0372
61 | C13A G57C C85A | -1.99
62 | C13A U14A G44A C56U | -2.36
63 | C13A U32C C49U G61A G77C U92C | -3.43

Row | Variant | polymerase ribozyme fitness (log ratio)
64 | C13G C99U | -4.01
65 | C13A U21A G47U U109A | -5.74
66 | C13G A41U G117C | -5.86
67 | C13A G44C U116G C124G | -2.72
68 | C13G C53G | -1.53
69 | C13A U21C A50U C98U U106A C115U | -6.68
70 | C13G A18C U38G C88A A121U | -3.5
71 | C13A G113A | -2.48
72 | C13A G113U | -4.1
73 | C13A G63A C72U G127C | -3.45
74 | C13G G36A A95C | -4.52
75 | C13G C56G C72G C88A G110C | -6.47
76 | C13A U21A A29U | -4.11
77 | C13G C64U C73A G120A A121U | -0.317
78 | C13G C102A | -3.6
79 | C13G G44A | -2.85
80 | C13A G48U A111C | -2.2
81 | C13A G48A G69A C114U U129A | -6.99
82 | C13G C76U | -1.95
83 | C13A G44C | -1.83
